Experiment [1] deals with human von Willebrand factor (vWF) (human) (UniProt P04275). As to the kind of experiment: competition ELISA: inhibition of plasma or purified human vWF binding to coated human collagen type I. (An ELISA detects its analyte on a solid surface through an enzyme-linked reagent.)
Experiment [2] has the same target. As to the kind of experiment: cell-based or functional assay.
Experiment [3] deals with baboon von Willebrand factor (vWF) (baboon). The experiment in a line: ex vivo occupancy ELISA (vWF captured, bound mAb detected), baboon plasma, 100 µg/kg group, 0 min (before dosing).
baboon von Willebrand factor (vWF) (baboon), sequence (A0A096 entry or part of it limits assumed, form in doubt): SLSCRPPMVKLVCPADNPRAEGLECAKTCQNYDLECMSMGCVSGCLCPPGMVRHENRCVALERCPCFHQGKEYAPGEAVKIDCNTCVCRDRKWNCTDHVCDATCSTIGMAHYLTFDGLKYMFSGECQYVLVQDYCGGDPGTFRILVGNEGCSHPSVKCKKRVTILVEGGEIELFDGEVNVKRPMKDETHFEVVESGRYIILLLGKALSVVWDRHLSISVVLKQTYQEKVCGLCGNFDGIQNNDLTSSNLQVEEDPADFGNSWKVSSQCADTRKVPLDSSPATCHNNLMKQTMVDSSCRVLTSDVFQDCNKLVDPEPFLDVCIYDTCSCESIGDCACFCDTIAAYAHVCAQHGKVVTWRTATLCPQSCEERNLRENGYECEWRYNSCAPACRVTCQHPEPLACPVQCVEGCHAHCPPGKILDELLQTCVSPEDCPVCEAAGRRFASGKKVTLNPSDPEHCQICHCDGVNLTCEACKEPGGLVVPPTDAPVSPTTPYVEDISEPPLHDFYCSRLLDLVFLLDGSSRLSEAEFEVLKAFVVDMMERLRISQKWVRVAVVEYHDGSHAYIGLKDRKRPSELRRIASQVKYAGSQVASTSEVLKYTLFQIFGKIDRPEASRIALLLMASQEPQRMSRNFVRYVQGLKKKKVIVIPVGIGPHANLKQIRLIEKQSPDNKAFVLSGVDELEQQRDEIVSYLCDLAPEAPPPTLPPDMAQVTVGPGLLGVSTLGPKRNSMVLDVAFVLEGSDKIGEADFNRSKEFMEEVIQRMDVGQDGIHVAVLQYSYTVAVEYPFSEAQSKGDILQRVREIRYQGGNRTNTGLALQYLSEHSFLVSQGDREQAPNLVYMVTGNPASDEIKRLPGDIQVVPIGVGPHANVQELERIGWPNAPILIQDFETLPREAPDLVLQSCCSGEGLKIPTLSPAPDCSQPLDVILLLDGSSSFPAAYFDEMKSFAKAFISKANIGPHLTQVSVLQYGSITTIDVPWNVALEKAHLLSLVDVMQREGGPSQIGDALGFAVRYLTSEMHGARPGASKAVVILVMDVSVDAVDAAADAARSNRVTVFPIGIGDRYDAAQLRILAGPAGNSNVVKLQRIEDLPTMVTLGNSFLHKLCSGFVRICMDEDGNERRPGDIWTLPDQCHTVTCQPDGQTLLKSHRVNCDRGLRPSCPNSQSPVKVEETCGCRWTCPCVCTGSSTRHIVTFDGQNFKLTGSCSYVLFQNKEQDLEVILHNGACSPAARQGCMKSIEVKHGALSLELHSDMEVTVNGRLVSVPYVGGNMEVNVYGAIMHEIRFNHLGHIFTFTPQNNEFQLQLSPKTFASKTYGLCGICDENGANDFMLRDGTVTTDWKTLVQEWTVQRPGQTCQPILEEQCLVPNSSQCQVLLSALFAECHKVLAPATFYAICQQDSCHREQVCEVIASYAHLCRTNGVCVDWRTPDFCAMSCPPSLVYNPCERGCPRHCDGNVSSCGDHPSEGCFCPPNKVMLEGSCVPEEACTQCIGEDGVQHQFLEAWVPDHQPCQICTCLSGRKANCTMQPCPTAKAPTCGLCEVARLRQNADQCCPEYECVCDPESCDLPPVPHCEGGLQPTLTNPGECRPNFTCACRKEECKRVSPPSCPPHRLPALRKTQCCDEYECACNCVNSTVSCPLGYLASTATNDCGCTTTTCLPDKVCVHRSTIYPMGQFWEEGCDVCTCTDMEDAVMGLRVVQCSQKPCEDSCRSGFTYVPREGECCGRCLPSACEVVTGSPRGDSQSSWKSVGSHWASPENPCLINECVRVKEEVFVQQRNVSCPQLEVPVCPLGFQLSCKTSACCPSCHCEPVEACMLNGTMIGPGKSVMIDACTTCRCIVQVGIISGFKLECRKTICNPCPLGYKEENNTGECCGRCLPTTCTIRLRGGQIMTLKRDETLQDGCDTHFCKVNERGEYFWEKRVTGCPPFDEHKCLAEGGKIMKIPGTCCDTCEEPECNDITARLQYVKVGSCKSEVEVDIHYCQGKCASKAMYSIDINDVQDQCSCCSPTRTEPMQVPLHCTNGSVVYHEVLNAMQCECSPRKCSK
The target is the same in experiment [4]. As to the kind of experiment: ex vivo occupancy ELISA, baboon plasma, 300 µg/kg, 24 h.
The target is the same in experiment [5]. As to the kind of experiment: ex vivo occupancy ELISA, baboon plasma, 100 µg/kg, 60 min.
For experiment [6] the target is unchanged. The experiment in a line: ex vivo occupancy ELISA, baboon plasma, 300 µg/kg, 48 h.
For experiment [7] the target is unchanged. As to the kind of experiment: ex vivo occupancy ELISA, baboon plasma, 600 µg/kg, 300 min.
Experiment [8] shares this target. As to the kind of experiment: ex vivo occupancy ELISA, baboon plasma, 100 µg/kg, 30 min.
Experiment [9] shares this target. The experiment in a line: ex vivo occupancy ELISA, baboon plasma, 300 µg/kg, 30 min.
Experiment [10] has the same target. The experiment in a line: ex vivo vWF-occupancy ELISA on baboon plasma against 82D6A3 plasma level.
The target is the same in experiment [11]. As to the kind of experiment: ex vivo ELISA on coated human collagen type I, baboon plasma 60 min after 600 µg/kg mAb 82D6A3.
The target is the same in experiment [12]. As to the kind of experiment: ex vivo ELISA on coated human collagen type I, baboon plasma 60 min after 300 µg/kg mAb 82D6A3.
The target is the same in experiment [13]. As to the kind of experiment: ex vivo occupancy ELISA, baboon plasma, 600 µg/kg, 60 min.
Experiment [14] shares this target. The experiment in a line: ex vivo occupancy ELISA, baboon plasma, 300 µg/kg group, 0 min (before dosing).
Experiment [15] shares this target. The experiment in a line: ex vivo occupancy ELISA, baboon plasma, 600 µg/kg, 150 min.
For experiment [16] the target is unchanged. As to the kind of experiment: ex vivo occupancy ELISA, baboon plasma, 300 µg/kg, 150 min.
Experiment [17] has the same target. The experiment in a line: ex vivo occupancy ELISA, baboon plasma, 300 µg/kg, 300 min.
Experiment [18] has the same target. As to the kind of experiment: ex vivo ELISA on coated human collagen type I, baboon plasma 1 hour after 100 µg/kg mAb 82D6A3.
Experiment [19] has the same target. As to the kind of experiment: ex vivo occupancy ELISA, baboon plasma, 300 µg/kg, 60 min.
Experiment [20] has the same target. The experiment in a line: ex vivo occupancy ELISA, baboon plasma, 600 µg/kg, 24 h.
Experiment [21] shares this target. The experiment in a line: ex vivo occupancy ELISA, baboon plasma, 600 µg/kg group, 0 min (before dosing).
Experiment [22] shares this target. The experiment in a line: ex vivo occupancy ELISA, baboon plasma, 600 µg/kg, 30 min.
Experiment [23] addresses human placental collagen type I (fibrillar) (human) (UniProt P02452). The experiment in a line: ex vivo ELISA on coated human collagen type I, baboon plasma 30 min after 300 µg/kg mAb 82D6A3, against the pre sample.
For experiment [24] the target is unchanged. As to the kind of experiment: ex vivo ELISA on coated human collagen type I, baboon plasma 300 min after 300 µg/kg mAb 82D6A3, against the pre sample.
Experiment [25] has the same target. As to the kind of experiment: ex vivo ELISA on coated human collagen type I, baboon plasma 24 h after 300 µg/kg mAb 82D6A3, against the pre sample.
The target is the same in experiment [26]. The experiment in a line: ex vivo ELISA on coated human collagen type I, baboon plasma, 300 µg/kg mAb 82D6A3 group, 0 min (before dosing; pre sample set as 100%).
Experiment [27] shares this target. The experiment in a line: ex vivo ELISA on coated human collagen type I, baboon plasma 150 min after 300 µg/kg mAb 82D6A3, against the pre sample.
Experiment [28] shares this target. As to the kind of experiment: ex vivo ELISA on coated human collagen type I, baboon plasma, 600 µg/kg mAb 82D6A3 group, 0 min (before dosing; pre sample set as 100%).
Experiment [29] has the same target. The experiment in a line: ex vivo ELISA on coated human collagen type I, baboon plasma 150 min after 600 µg/kg mAb 82D6A3, against the pre sample.
For experiment [30] the target is unchanged. The experiment in a line: ex vivo ELISA on coated human collagen type I, baboon plasma 30 min after 100 µg/kg mAb 82D6A3, against the pre sample.
For experiment [31] the target is unchanged. As to the kind of experiment: ex vivo ELISA on coated human collagen type I, baboon plasma 300 min after 600 µg/kg mAb 82D6A3, against the pre sample.
Experiment [32] shares this target. The experiment in a line: ex vivo ELISA on coated human collagen type I, baboon plasma 30 min after 600 µg/kg mAb 82D6A3, against the pre sample.
Experiment [33] has the same target. The experiment in a line: ex vivo ELISA on coated human collagen type I, baboon plasma 60 min after 100 µg/kg mAb 82D6A3, against the pre sample.
For experiment [34] the target is unchanged. The experiment in a line: ex vivo ELISA on coated human collagen type I, baboon plasma, 100 µg/kg mAb 82D6A3 group, 0 min (before dosing; pre sample set as 100%).
Experiment [35] has the same target. The experiment in a line: ex vivo ELISA on coated human collagen type I, baboon plasma 48 h after 300 µg/kg mAb 82D6A3, against the pre sample.
Experiment [36] has the same target. As to the kind of experiment: ex vivo ELISA on coated human collagen type I, baboon plasma 24 h after 600 µg/kg mAb 82D6A3, against the pre sample.
Experiment [37] shares this target. The experiment in a line: ex vivo ELISA on coated human collagen type I, baboon plasma 60 min after 600 µg/kg mAb 82D6A3, against the pre sample.
Experiment [38] shares this target. As to the kind of experiment: ex vivo ELISA on coated human collagen type I, baboon plasma 60 min after 300 µg/kg mAb 82D6A3, against the pre sample.

human placental collagen type I (fibrillar) (human), sequence (P02452 162-1218 limits assumed, chain 1 of 2): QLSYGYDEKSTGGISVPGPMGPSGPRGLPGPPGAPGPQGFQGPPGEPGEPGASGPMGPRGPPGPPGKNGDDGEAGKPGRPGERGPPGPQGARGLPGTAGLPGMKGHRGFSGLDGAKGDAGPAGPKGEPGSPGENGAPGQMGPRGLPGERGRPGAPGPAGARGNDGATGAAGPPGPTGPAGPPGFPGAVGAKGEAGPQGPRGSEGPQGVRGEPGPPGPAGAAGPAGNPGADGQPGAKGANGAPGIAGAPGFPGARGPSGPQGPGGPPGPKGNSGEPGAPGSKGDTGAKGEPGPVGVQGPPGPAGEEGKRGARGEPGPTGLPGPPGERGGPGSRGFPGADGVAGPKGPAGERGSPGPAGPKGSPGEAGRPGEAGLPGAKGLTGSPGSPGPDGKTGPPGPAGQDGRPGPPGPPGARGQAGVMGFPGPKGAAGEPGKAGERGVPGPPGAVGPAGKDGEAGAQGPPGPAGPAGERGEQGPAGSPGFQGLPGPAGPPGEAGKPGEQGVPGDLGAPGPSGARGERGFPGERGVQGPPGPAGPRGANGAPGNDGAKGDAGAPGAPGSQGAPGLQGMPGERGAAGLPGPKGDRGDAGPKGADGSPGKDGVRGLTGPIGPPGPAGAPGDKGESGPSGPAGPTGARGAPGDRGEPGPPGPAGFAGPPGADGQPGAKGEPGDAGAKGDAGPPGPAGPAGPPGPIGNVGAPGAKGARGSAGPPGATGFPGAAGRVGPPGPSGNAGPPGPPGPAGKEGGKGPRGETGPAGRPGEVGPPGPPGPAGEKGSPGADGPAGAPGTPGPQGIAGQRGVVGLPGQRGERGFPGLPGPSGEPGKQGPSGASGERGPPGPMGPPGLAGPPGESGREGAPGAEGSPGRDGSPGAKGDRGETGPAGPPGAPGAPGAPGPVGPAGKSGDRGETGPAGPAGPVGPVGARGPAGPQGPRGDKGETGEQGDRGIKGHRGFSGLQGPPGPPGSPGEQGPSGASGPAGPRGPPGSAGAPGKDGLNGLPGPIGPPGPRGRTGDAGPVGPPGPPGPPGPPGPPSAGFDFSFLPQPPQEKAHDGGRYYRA
human placental collagen type I (fibrillar) (human), sequence (P08123 80-1119 limits assumed, chain 2 of 2, further chain): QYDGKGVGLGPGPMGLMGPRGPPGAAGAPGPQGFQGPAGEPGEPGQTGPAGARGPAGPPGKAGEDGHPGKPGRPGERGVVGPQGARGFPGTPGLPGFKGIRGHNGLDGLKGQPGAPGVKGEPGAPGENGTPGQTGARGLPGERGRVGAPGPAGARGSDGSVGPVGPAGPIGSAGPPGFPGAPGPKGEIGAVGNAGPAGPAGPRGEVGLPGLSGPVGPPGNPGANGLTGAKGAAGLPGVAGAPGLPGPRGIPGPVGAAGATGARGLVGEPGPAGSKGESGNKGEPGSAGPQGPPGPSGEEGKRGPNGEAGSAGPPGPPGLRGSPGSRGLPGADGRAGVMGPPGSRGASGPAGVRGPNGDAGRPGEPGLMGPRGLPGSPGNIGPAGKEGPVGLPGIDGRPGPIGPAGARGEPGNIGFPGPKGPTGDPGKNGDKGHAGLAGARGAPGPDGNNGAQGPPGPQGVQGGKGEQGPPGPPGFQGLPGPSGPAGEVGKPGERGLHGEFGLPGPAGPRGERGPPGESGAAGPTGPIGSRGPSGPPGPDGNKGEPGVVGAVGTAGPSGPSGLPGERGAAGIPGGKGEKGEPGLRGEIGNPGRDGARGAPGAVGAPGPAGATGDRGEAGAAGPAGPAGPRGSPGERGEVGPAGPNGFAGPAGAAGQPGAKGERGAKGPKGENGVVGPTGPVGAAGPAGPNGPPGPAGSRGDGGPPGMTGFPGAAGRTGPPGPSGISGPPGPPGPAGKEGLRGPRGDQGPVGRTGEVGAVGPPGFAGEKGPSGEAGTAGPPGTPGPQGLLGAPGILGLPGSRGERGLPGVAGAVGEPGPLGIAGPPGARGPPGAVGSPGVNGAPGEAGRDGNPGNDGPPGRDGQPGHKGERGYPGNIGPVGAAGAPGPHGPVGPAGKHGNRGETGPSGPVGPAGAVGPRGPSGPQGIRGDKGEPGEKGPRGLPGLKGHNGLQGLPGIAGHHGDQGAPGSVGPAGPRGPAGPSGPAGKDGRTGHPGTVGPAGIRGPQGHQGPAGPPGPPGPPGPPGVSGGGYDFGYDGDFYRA

The IC50 is the concentration needed to halve the response being measured. A high value points to lower potency. Turning to 82D6A3 F(ab) fragment (Fab), the IC50 in experiment [1] is 1 µg/mL. This substance also gave a platelet deposition onto human collagen type I in flow, shear rate 1300 s^-1 in experiment [2] of 10 µg/mL.

In the case of “murine anti-human vWF monoclonal antibody mAb 82D6A3”, the vWF occupancy (%) in experiment [3] is 2.3%; in [4], 74%; in experiment [5], 80%; in experiment [6], 63%; in experiment [7] it was 97%; in [8], 80%. Also, the vWF occupancy (%) in experiment [9] amounted to 102%; in experiment [13], 96%; in experiment [14], 2.3%; in experiment [15] it was 97%; in experiment [16] it was 101%; in experiment [17] it was 94%. Moreover, the vWF occupancy (%) worked out at 99% in experiment [19], 88% in experiment [20], 6.9% in [21] and 96% in experiment [22]. The plasma level from which vWF-occupancy is maximal in experiment [10] turned out to be 1 µg/mL. In addition, the ex vivo inhibition of the vWF-collagen interaction (%) in experiment [11] and in experiment [12] was 96% each time. In experiment [1], this substance gave an IC50 of 0.02 µg/mL. In experiment [18], this substance yielded an ex vivo inhibition of the vWF-collagen binding (%) of 31%. The same substance yielded a platelet deposition onto human collagen type I in flow, shear rate 1300 s^-1 in experiment [2] of 1 to 5 µg/mL.

“baboon von Willebrand factor (vWF), A0A096N8H2 764-2813”: the collagen binding (%) in experiment [23] was determined as 4%; in [24] it was 4%; in [25], 91%; in [26] it was 101%; in experiment [27], 4%; in experiment [28], 100%. Moreover, the collagen binding (%) is 3.52% in experiment [29]; 64% in experiment [30]; 4% in experiment [31]; 4% in [32]; 69% in [33]; 101% in experiment [34]. Also, the collagen binding (%) is 93% in experiment [35], 45% in [36], 3.5% in experiment [37] and 4% in experiment [38].

(Values after US20070081999A1.)
